Experiment [1] addresses Full-length Human OX40 (human) (UniProt P43489). The experiment in a line: flow cytometry (GUAVA Easycyte), antibody at 1:30 dilution, CHO clone OXF001a_6B1 expressing human OX40. A general note: Flow cytometry measures light scatter and fluorescence of single cells or particles in a stream.
The target is the same in experiment [2]. The experiment can be described thus: flow cytometry (GUAVA Easycyte), antibody at 1:30 dilution, CHO clone OXF001a_9G10 expressing human OX40.
The target of experiment [3] is Full-length Cyno OX40 (cynomolgus monkey). The experiment in a line: flow cytometry (GUAVA Easycyte), antibody at 1:30 dilution, CHO clone OXF004a_11H7 expressing cynomolgus OX40.
Sequence of Full-length Cyno OX40 (cynomolgus monkey) (P43489 other isoform, or with tags, fused parts or gaps): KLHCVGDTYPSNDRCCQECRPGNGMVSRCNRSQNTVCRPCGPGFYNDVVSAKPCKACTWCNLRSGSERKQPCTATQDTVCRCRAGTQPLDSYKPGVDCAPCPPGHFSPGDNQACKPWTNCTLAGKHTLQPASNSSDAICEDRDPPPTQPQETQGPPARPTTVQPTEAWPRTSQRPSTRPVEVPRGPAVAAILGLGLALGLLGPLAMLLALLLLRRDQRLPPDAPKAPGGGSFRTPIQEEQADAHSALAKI

Sequence of Full-length Human OX40 (human) (P43489 29-277): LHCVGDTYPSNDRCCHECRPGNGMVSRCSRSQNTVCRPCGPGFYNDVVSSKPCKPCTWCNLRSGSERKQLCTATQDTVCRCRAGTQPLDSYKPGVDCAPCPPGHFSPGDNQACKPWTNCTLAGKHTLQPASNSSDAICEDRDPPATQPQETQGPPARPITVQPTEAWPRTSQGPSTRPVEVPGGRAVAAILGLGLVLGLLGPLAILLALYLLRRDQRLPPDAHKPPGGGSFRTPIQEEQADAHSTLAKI

Consider “antibody to human OX40 (clone L106, BD Biosciences)”, for which the values for the MFI in experiment [1], in experiment [2] and in experiment [3] were 211, 230 and 456, respectively.

For the origin of these results see US20220242962A1.
